# According to the DeepSol protein solubility set:
# Assay: soluble on expression in E. coli; label from the status in PepcDB or PDB records
row,Sequence,soluble on expression in E. coli
1,MGSDKIHHHHHHMKVLLYLEAEEYLKKSGIGRAIKHQEKALQIAGIDYTTNPTDDFDLVHMNTYGIRSWLLMSKAKKTGKKVIMHGHSTEEDFRNSFIGSNLVSPLFKWYLCRFYQKADAIITPTDYSKQLIKAYGIKKPIFVLSNGIDLSRYQRSEKKESAFRHYFHLSKDDKVVMGAGLYFMRKGIDQFVEVAAKMPDIRFIWFGETNKWVIPRKVRQIVTKQHPSNVTFAGYIKGDVYEGAMSASDAFFFPSREETEGIVVLEALASHQHVVLRDIPVYHGWVTEDSVELATDVDGFVEKLDKVLSGKSDKIKEGYHVAESRSIERIAHELASVYQKVMEL,not soluble
2,MGSDKIHHHHHHMTPPPDELLAVRQAVEWAITTRRSVRAFLPKPVTADTVEAILNTARFAATGVNIQPWKVHVLMGAAKDRVCAAIKQIDDDPAVAVMHADEWAYYPKEWTSPYVDRRRAVGWRLYSLLGIEKGDKARMQVQHGRNYQFFGAPVGLFFTVDRLMSEGSLLDYGMFLQNIMVVARTYGLSTCPQAAFMKYHRIIEQELGLGAHEKFVVGMSLGYADEERIENTLASEREPAASFTTFHEK,not soluble
3,MYGVLVWPPEDLRRFMEELQAARGVRGFGPPHLNLRQPFDWPYEEEALRIALAGILRGHPPFRVRLGDWRFFPQGVVYLRAYGGGAFRRLYHALEPLAPPLKEIEGPSYIPHLTLALGLSPEEAKALAQSLPPPPRRSFLVREAALVRDEGEGLVEVARFPLGPSPER,soluble
4,LTPLAQMAEGMERQDVSIDKWTLHAKQNLSLTEKEFYQKVQRLKQEYRQYDWVIAREDKMIKAIGTYTDKKNRTSFRLQLVTTLKKHNPTSYLLYEQMSLETPDSWNDTYEQFERETLGIFQEKVVIFTCLNGHLDDNMNIVLQKKANQLLNEFQARSVEHVVEPNFVSISAFTDEWEEYIMTSKHKMNLQIALRSAGMGGKHTVTVGTPIVTTEY,soluble
5,MRIVSLCPSNTELLAYLGRLDDVAAVDDSSDWPPEVKQLPKVGPDLHIDMDQVEALKPDLVVASLSVPGMERNVKELKRRGLPHLVLAPNSLDDIANDLLRLGEALGETKKAAELVRRYHDVLDWHRERAASAEPARLYWEWWPRPVFTPGGANWLSELSELAGGRNIFSDIPQASVQTEWDDVLARNPSHILLVWVGVQTKKMSPKAVTARPNAQQAEAVRTGNIHILEESLYCRPSPRLLVGLKKLAPLLHPALFPPADDSDPLLGG,not soluble
6,MGSDKIHHHHHHMLRSTISLLMNSAAQKTMTNSNFVLNAPKITLTKVEQNICNLLNDYTDLYNQKYHNKPEPLTLRITGGWVRDKLLGQGSHDLDIAINVMSGEQFATGLNEYLQQHYAKYGAKPHNIHKIDKNPEKSKHLETATTKLFGVEVDFVNLRSEKYTELSRIPKVCFGTPEEDALRRDATLNALFYNIHKGEVEDFTKRGLQDLKDGVLRTPLPAKQTFLDDPLRVLRLIRFASRFNFTIDPEVMAEMGDPQINVAFNSKISRERVGVEMEKILVGPTPLLALQLIQRAHLENVIFFWHNDSSVVKFNEENCQDMDKINHVYNDNILNSHLKSFIELYPMFLEKLPILREKIGRSPGFQQNFILSAILSPMANLQIIGNPKKKINNLVSVTESIVKEGLKLSKNDAAVIAKTVDSICSYEEILAKFADRSQLKKSEIGIFLRNFNGEWETAHFASLSDAFLKIPKLETKKIELLFQNYNEFYSYIFDNNLNNCHELKPIVDGKQMAKLLQMKPGPWLGKINNEAIRWQFDNPTGTDQELITHLKAILPKYL,not soluble
7,MSLKIGIVKHLNARPLTWGFEKNKKHEIVPENPAILKDYLLNGTIDLGLISSIECIRNDHVLNTYYGTGVCAREKVRSILFFKNKRENFPPKQILTDNGSKTSVALVRVLIYEESGLIPYVEPTDSKLIQEKISNGIGSHMLFGDNALLAKWNPEFYEVKDLAQWWNELTGLGFIFALWASKKSLKLDDLIFIQSLEYGVSHIEEIISHESRLSSTLVREYLTKELHYKITEEDQKGFLLFREKCSQLNLLEGHHHHHH,soluble
8,MEFMKLAIEEAKKGMEKGDGGPFGAVIVKDGKVIGSGHNMVLVTKDPTAHAEVTAIRNTCKNVDNFDLSGCQLYTSCYPCPMCMGAALWSRVDAIYYGATSQDAANIGFGDHEFHEFLQNPKSDDKRKLEQFKVDNYLEPFQLWSKKDNKELY,not soluble
9,MESLLTLPLAGEARVRILQITDTHLFAEKHETLLGVNTWESYQAVLEAIRAQQYEYDLIVATGDLAQDQSAAAYQHFAEGIASFRAPCVWLPGNHDFQPAMYSALQEAGISPAKRVLIGEQWQILLLDSQVFGVPHGELSEFQLEWLERKLADAPERQTLLLLHHHPLPAGCSWLDQHSLRNAGELDSVLANFPRVKYLLCGHIHQELDLDWNGRRLLASPSTCVQFKPHCANFTLDTIAPGWRTLELRANGVLETEVHRLQDTRFRPDTASEGY,not soluble
10,MNVLFLSISLGSGHIRAAEALQKFVVQKYPKSKTLIVDTFKYINPLIHTVVVDGYLNIVKYVPEIYGGLYRMSEHIKNIDRMSRGFSNLLTPKIHRLIQSFKPSIIVCTHPFPLQMIAHLKKHYNLDVPSIAIVTDFVNHPFWFQNNIEAYIVAHDYIKRDMIECGISEDRIFTYGLPVAPEFLKSIPKEQARKELSLENTLTVLLMGGSLGIGDIENTFKSFAKCKRDIQIIAVAGKNTALKKRLDSLAASFPMPVKIFGYTDSIPMLMDASDFIVTKPGAMTISEALVKRLPALIISPIPGQEERNEQFLVNSGTAVRIYKNTKIDSVLCQVYDNKLRYKQMKEIAGNLANPDSGRNILSLIEKLVNDNEKGLFKYSFNAF,soluble
11,MENKTLDHTLQGAPLWLTNFVLVYQKLSKENLQLLATIYHENVTFIDPLHTVEGFDDLYQYFENLYQNLSACDFVIEEVIWQDSQASLFWTMTYQHPKLNKGKMVTVVGTSHIKGEGDKVIYHRDFLDLGAMLYEQLPILGKLTKWIKTKAAN,not soluble
12,MGSDKIHHHHHHAAEGNDKKQDLIVKTTQAVPVSHQGDKEFSFIARPFRTSELSFRVGGPIDRFDVYAGNRYQQGSIIAEIDPRDFRIRKERAEAIYHQAKAEFERIQKLYGKGNVSASTYEKAKADYITAKTTFNTASYELEDTHLIAPFNGYVGEVYIEKFQDVKATQPIISFIDIDQLKLEIYVTQDIARAVQALDTIQVRFDAQPDKVYNAKIMEISKGTTRNNLSYLLTALLPNKEGKLLAGMSGKASLNAPSVSTLSQGAAIPQTALCHRPTEGDYLWVVNSKTQQVTKRKVKKGDLLPNGYVSITEGLYPDETVANSGLRFLSDGMKISVENE,not soluble
13,MMMLPEACIANILAFTSPADAFSSSEVSSVFRLAGDSDFVWEKFLPSDYKSLISQSTDHHWNISSKKEIYRCLCDSLLIDNARKLFKINKFSGKISYVLSARDISITHSDHASYWSWSNVSDSRFSESAELIITDRLEIEGKIQTRVLSANTRYGAYLIVKVTKGAYGLDLVPAETSIKSKNGQISKSATYLCCLDEKKQQMKRLFYGNREERMAMTVEAVGGDGKRREPKCRDDGWMEIELGEFETREGEDDEVNMTLTEVKGYQLKGGILIDGIEVRPKT,soluble
14,MNNGKLFLVGTPIGNLKDITLRALETLQNCDVIAAEDTRQSLKLLNHFDIKKPLISYHKFNENNRSSELMDMVREGKKVALVTDAGMPGISDPGSVIVEKFIENNLEFEVIPG,not soluble
15,TVVCDNGYGDLAATSALTTVIKDPISLTIKDIYEHGVKNPFTKIIHKLKKFIRYRKVLRWSRMWWVLLVREIVGDNTIEKKTEKALREIWDQCTIAVYNNTLNAVESKPLLFLHGILNECRNNFATKLRQDPSLIVAKIDQIIKSQIYRFWVSEPYLKIGRSHTLYTHITPDAVPQLPKECTLKHLSSYMEEKLKSMESKKNIESGKYEFDVDSSETDSTKDDGKPDDDDDDDDNFDDDDNFDDDTVEEEDASGDLFKNEKKDENKE,soluble
16,MISLPAGSRIWLVAGITDMRNGFNGLASKVQNVLKDDPFSGHLFIFRGRRGDQIKVLWADSDGLCLFTKRLERGRFVWPVTRDGKVHLTPAQLSMLLEGINWKHPKRTERAGIRI,not soluble
17,MAERTHFMELALVEARSAGERDEVPIGAVLVLDGRVIARSGNRTRELNDVTAHAEIAVIRMACEALGQERLPGADLYVTLEPCTMCAAAISFARIRRLYYGAQDPKGGAVESGVRFFSQPTCHHAPDVYSGLAESESAEILRQF,soluble
18,MGSDKIHHHHHHMTLADYVEIETTKDELIRACKQAADLIRTRVDYKYILVLLFLKKLSDEWKREYREALKTLMEKGVDEEEAKILAKDRSFHKFDYPEKYTWEELRKNVNELPVRLSEALKLLAEKNPELQGVVDRLDFLEFTRARDNFDILVQLFELFSGLNLGRASDSILGDAYEWLIGYFAPQKAKEGEVFTPSEVVELIVRIVDPKPMDSVYDPAAGYARMLIRAYDYVKEKYGEEEVRKLFLYGQEVNPTTYAIAKMNAIVHGIKDINLVVGDTLKNPRFKEGETFRKFDIVIANPPWNQDGYGEEELKKAEFYDERFRYGFTPKQSADWAWIQHMLASAKKKVGVVIDNGCLFRGGKEGAIRKAVVEDDLIECVILLPEKLFYNTGAPGAIIIFNKQKPESRKGKILFINASNEYEKHPEVRKLNRLGEKHIEKIVSAYREFKDGDGFCRVVDVEEVRKNDYNLNVTLYVFPQEEVEEIDVAKEWEELRGIEREIDEVERRIEEYLAELGFGRG,not soluble
19,MSPAYLCARPRTRASVTFRPTCGVNLPFHADRARTVSTSTNSATVLWLGYQAPNSISTAVSGAVANHAAKDLQKFQTALQSRNPDQRKVVIGYSYGSTVAGKAASSSELDVRARHFRGDGYSIALNNAVEIKGLEHHHHHH,not soluble
20,MRVGLVHGFLSRRYLDFWRAYLEALGVEVVEAAPPPSDLPFCLPVQRLLAQVEALKEAGVDYLLLPDLQGGVESERGGGQCPWLLDLEAALLRYFPGLPPVLKVPAELSERVLGRAGEVGQLLVRNPMLVGRALDRTRRLLKPPPPLPTPQGSVGVVAQPYLLEEPAFRREVEAALRAHGLEAYFPDLPPERLREEADRLLPVDLPTDRELVGAIHYLGRLGRVKGLALVVSYACPPIPGLMRKAARRLGKPYRLLTLGEDWQEPLAALKAEMEKGNRGG,soluble
21,MALFRGMWSVLKALGRTGVEMCAGCGGRIPSSISLVCIPKCFSSMGSYPKKPMSSYLRFSTEQLPKFKAKHPDAKLSELVRKIAALWRELPEAEKKVYEADFKAEWKAYKEAVSKYKEQLTPSQLMGMEKEARQRRLKEKALVKRRELILLGKPKRPRSAYNIYVSESFQEAKDDSAQGKLKLVNEAWKNLSPEEKQAYIQLAKDDRIRTTYEMKSWEEQMAEVGRSDLIRRSVKRSGDISEH,soluble
22,MRVDVVSRDIIKPSSPTPNHLKKFKLSLLEQLGPTIFGPMVFFYSANNSIKPTEQLQMLKKSLSETLTHFYPLAGRLKGNISIDCNDSGADFLEARVNSPLSNLLLEPSSDSLQQLIPTSVDSIETRTRLLLAQASFFECGSMSIGVCISHKLADATSIGLFMKSWAAISSRGSIKTIGAPVFDTVKIFPPGNFSETSPAPVVEPEIMMNQTLSKRFIFDSSSIQALQAKASSFEVNQPTRVEAVSALIWKSAMKATRTVSGTSKPSILANSVSLRSRVSPPFTKNSIGNLVSYFAAKAEEGINQTKLQTLVSKIRKAKQRFRDIHIPKLVGNPNATEIICSYQKEAGDMIASGDFDFYIFSSACRFGLYETDFGWGKPVWVGFPSVRQKNIVTLLDTKEAGGIEAWVNLNEQEMNLFEQDRELLQFASLNPSVIQPFLHVL,soluble
